Results on two molecules are retold here after PMC12822440, “An Aptamer‐Based EXACT Anticoagulant as a Sustainable, Animal‐Free Alternative to Unfractionated Heparin”.

One data set deals with prothrombin (UniProt P00734 44-622). The data set can be described thus: filter binding; dabigatran covalently attached to the aptamer; Nitrocellulose filter binding, 32P 5'-labelled aptamer (500 CPM/uL), selection buffer (composition not given), 5 min at room temperature, n = 2. To be noted: protein: commercial; label: 5'-32P.
Data set [1] addresses T1, thrombin (alpha-thrombin) (UniProt P00734;P00734 315-363;364-622). The data set can be described thus: filter binding; dabigatran covalently attached to the aptamer, occupies the active site; Nitrocellulose filter binding, 32P 5'-labelled aptamer (500 CPM/uL), selection buffer (composition not given), 5 min at room temperature, n = 2.
Data set [2] concerns the target T1, thrombin (alpha-thrombin). The data set can be described thus: filter binding; Nitrocellulose filter binding, 32P 5'-labelled aptamer (500 CPM/uL), selection buffer (composition not given), 5 min at room temperature, n = 2.

For GGTTGGTGTGGTTGGAAAAAAAAAAAA (structured_DNA, 3'-dabigatran conjugate (DAB) through 12-nt dA linker) [HD1-12A-DAB], the results for the Kd (in the data set with prothrombin; in data set [1]) were 296 nM and 0.0131 nM, respectively.

The molecule GGTTGGTGTGGTTGG (structured_DNA) [HD1] came in with a Kd in data set [2] of 110 nM.

The term Kd denotes the equilibrium constant for the complex coming apart. Read a low Kd as tighter binding.
